B1: HDV Ribozyme (parent)
chain: GGCCGGCAUGGUCCCAGCCUCCUCGCUGGCGCCGGCUGGGCAACAUUCCGAGGGGACCGUCCCCUCGGUAAUGGCGAAUGGGACCCA

Variants of: B1
Assay: self-cleavage, relative activity (ratio to wild type); higher = more cleavage; co-transcriptional

Variant	self-cleavage
GGCCGGCAUGGUCCCAGCCUCCUCGCUGGCGCCGGCUGGGCAACAUUCCUAGGGGACCGUCCCCUCGGUAAUGGCGAAUGGGACCCU [G50U A87U]	0.85
GGCCGGCAUGGUCCCAGCCUCCUCGCUGGCGCCGGCUGGGCAACAUUCCGAGGGGGCCGCCCCCUCGGUAAUGGCGAAUGGGACCCA [A56G U60C]	1.21
GGCCGGCAUGGUCCCAGCCUCCUCGCUGGCGCCGGCUCGGCAACGUUCCGAGGGGACCGUCCCCUCGGUAAUGGCGAAUGGGACCCA [G38C A45G]	0.227
GGCCGGCAUGGUCCCAGCCUCCUCGCUGGCGCCGGCUGGGCAACAUUCCGAGGGGGCAGUCCCCUCGGUAAUGGCGAAUGGGACCCA [A56G C58A]	1.12
GGCCGGCAUGGUCCCAGCCUCCUCGCAGCCGCCGGCUGGGCAACAUUCCGAGGGGACCGUCCCCUCGGUAAUGGCGAAUGGGACCCA [U27A G29C]	0.158
GGCCGGCAUGGUCCCAGCCUCCUCGCUGGCGCCGGCUCGGCAACAUUCCGAGGGGACCGUCCCCUCGGUAAUGGCGAAUGGGACCUA [G38C C86U]	0.145
GGCCGGCAUGGUCCCAGCCUCCUCGCUGGCGCCGGCUGGGCAACAUUCCGAGGGGACCGUCCCCUCGGUCAUGGCGAAAGGGACCCA [A70C U79A]	0.72
GGCCGGCAUGCUCCCAGCCUCCUCGCUGGCGCCGGCUGGGCAACAUUCCGAGGGGAACGUCCCCUCGGUAAUGGCGAAUGGGACCCA [G11C C57A]	0.453
GGCCGGCAUCGUCCCAGCCUCCUCGCUGGCGCCGGCUGGGCAACAUUCCGAGGGGACCCUCCCCUCGGUAAUGGCGAAUGGGACCCA [G10C G59C]	0.785
GGCCGGCAAGGUCCCAGCCUACUCGCUGGCGCCGGCUGGGCAACAUUCCGAGGGGACCGUCCCCUCGGUAAUGGCGAAUGGGACCCA [U9A C21A]	0.0739
GGCCGGCAUGGUCCCAGCCUCCUCGCUGGCGCCGGCUCGGCAACCUUCCGAGGGGACCGUCCCCUCGGUAAUGGCGAAUGGGACCCA [G38C A45C]	0.0678
GACCGGCAUGGUCCCAGCCUCCUCGCUGGCGCCGGCUGGGCAACAUUCCGAGGGGACCGUACCCUCGGUAAUGGCGAAUGGGACCCA [G2A C61A]	0.351
GGCCGGCAUGGUCCUAGGCUCCUCGCUGGCGCCGGCUGGGCAACAUUCCGAGGGGACCGUCCCCUCGGUAAUGGCGAAUGGGACCCA [C15U C18G]	0.0594
GGCCGGCAUGGUUCCAGCCUCCUCGCUGGCGCCGGCUGGGCAACAUUCCGAGGGGACCGUCCCGUCGGUAAUGGCGAAUGGGACCCA [C13U C64G]	0.567
GGCCGGCAUGGUCCCCGCCUCCUCGCUGGCGCCGGCUGGGCAACAUUCCGAGGGGACCGUCCCCUCGAUAAUGGCGAAUGGGACCCA [A16C G68A]	0.649
GGCCGGCAUGGUCCCAGCCUCCUCGCUGGCUCCGGCUGGGCAACAUUCCGAGGGGACCGUCCCCUCGAUAAUGGCGAAUGGGACCCA [G31U G68A]	0.38
GGCCGGCACGGUCCCAGUCUCCUCGCUGGCGCCGGCUGGGCAACAUUCCGAGGGGACCGUCCCCUCGGUAAUGGCGAAUGGGACCCA [U9C C18U]	0.457
GGCCGGCAUGGUCCCAGCCUCCUCGCUGGCGCCGGCUGUGCAACAUUCCGAGGGGACCGUCCCCUCGGUAAUGGCGAAUGGGACCCA [G39U]	0.727
GGCCGGCAUGGUCCCAGCCUCCUCGCUCGCGCCGGCUGGGCAACAUUCCCAGGGGACCGUCCCCUCGGUAAUGGCGAAUGGGACCCA [G28C G50C]	0.0437
GGCCGGCAUGGUCCGACCCUCCUCGCUGGCGCCGGCUGGGCAACAUUCCGAGGGGACCGUCCCCUCGGUAAUGGCGAAUGGGACCCA [C15G G17C]	0.0875
GGCCGGCAUGGUCCCAACCUCCUCGCUGGCGCCGGCUGGGCAACAUUCCGAGGGGACCGUCCCCUCGAUAAUGGCGAAUGGGACCCA [G17A G68A]	0.76
GGCCGGCGUGGUCCCAGCCUUCUCGCUGGCGCCGGCUGGGCAACAUUCCGAGGGGACCGUCCCCUCGGUAAUGGCGAAUGGGACCCA [A8G C21U]	0.201

Variant	self-cleavage
GGCCGGCAUGGUCCCAGCCUCCUCGCUGGCGCAGGCUGGGCAACAUUCCGAGGGGACCGUCCCCUCGGUAAUGGCUAAUGGGACCCA [C33A G76U]	0.326
GGCCGGCAUGGUCCCAGCCUCCUCGUUGGCGCCGGCUGGGCAACAUUCCGAGGGGACCGCCCCCUCGGUAAUGGCGAAUGGGACCCA [C26U U60C]	0.95
GGCGGGCAUGGUCCCAGCCUCCUCGCGGGCGCCGGCUGGGCAACAUUCCGAGGGGACCGUCCCCUCGGUAAUGGCGAAUGGGACCCA [C4G U27G]	0.268
GGCCGGCAUGGUCCCAGCCUCCUCGCUGGCGCCGGCUGGGCAAUAUUCCGAGGGGAGCGUCCCCUCGGUAAUGGCGAAUGGGACCCA [C44U C57G]	0.612
GGCCGGCAUGGUCCCAGCCUCCUCGCUGGCGCCGGCUGGGCAACGUUCCGAGGGGACGGUCCCCUCGGUAAUGGCGAAUGGGACCCA [A45G C58G]	1.14
GGCCGGCAUGGUCCCAGCGUCCUCGCUGGUGCCGGCUGGGCAACAUUCCGAGGGGACCGUCCCCUCGGUAAUGGCGAAUGGGACCCA [C19G C30U]	0.0462
GGCCGGUAUGGUCCCAGCCUCCUCGCUGGCGCCGGCUGGGCAUCAUUCCGAGGGGACCGUCCCCUCGGUAAUGGCGAAUGGGACCCA [C7U A43U]	0.475
GGCCGGCAUGGUCCCAGCCUCCUCGCUGGCGCCGGCUGGGCAACAUUCAGAGGGGACCGUCCCCUCGGUAGUGGCGAAUGGGACCCA [C49A A71G]	0.81
GGCCGGCAUGGUCCCAGCCUCCUCGCUGGCGCCGGCUGGGCAACAUUCCUAGGGGACCGUCCCCUCGGGAAUGGCGAAUGGGACCCA [G50U U69G]	0.95
GGCCGGCAUGGUCCCAGCCUCCUCGCUGGCGCCGGCAGGGCAACAUUCCGAGGGGACCGUCCCCUCGGAAAUGGCGAAUGGGACCCA [U37A U69A]	0.101
GACCGGCAUGGUCCCGGCCUCCUCGCUGGCGCCGGCUGGGCAACAUUCCGAGGGGACCGUCCCCUCGGUAAUGGCGAAUGGGACCCA [G2A A16G]	0.237
GGCCGGCACGGUCCCAGCCUCCUCGCUGGCGCCGGCUGGGCAACAUUCCGAGGAGACCGUCCCCUCGGUAAUGGCGAAUGGGACCCA [U9C G54A]	1.08
GGCCGGGAUGGUCCCAGCCUCCUCGCUGGCGCCGGCUGGGCAACAUUCCGAGGGGACCGUCCCCUAGGUAAUGGCGAAUGGGACCCA [C7G C66A]	0.161
GGCCGGCAUGGUCCCAGCCUCUUCGCUGGCGCCGGCUGGGCACCAUUCCGAGGGGACCGUCCCCUCGGUAAUGGCGAAUGGGACCCA [C22U A43C]	0.0282
GGCCGGCAUGGUCCCAGCCUCCUCGCUGGCGCCCGCUGGGCAACAUUCCGAGGGGACCGUCCCCUUGGUAAUGGCGAAUGGGACCCA [G34C C66U]	0.266
GGCCGGCAUGGUCCCAGCCUCCUCGCUGGCGCCGGCUGGGCAACAUUCCCAGGGGACCUUCCCCUCGGUAAUGGCGAAUGGGACCCA [G50C G59U]	0.932
GGCCGGCAUGGUCCCAGCCUCCACGCUGGCGCCGGCUGGGCAACAUUCCGAGGGGACCGUCCCCUCGGUAGUGGCGAAUGGGACCCA [U23A A71G]	0.8
GGCCGGAAUGGUCCCAGCCUCCUCGCUGGCGCCGGCUGGGCAACAUUCCGAGGGGACCGUCCCCUCGGUAAUAGCGAAUGGGACCCA [C7A G73A]	0.106
GGCCGGCAUGGUCCCAGCCUCCUCGCUGGCGCCGGCUGGGCGACAUUCCGAGGGGACCGUCCCCUCGGUAAUGGCCAAUGGGACCCA [A42G G76C]	0.672
GGCCGGCAUCGUCCCAGCCUCAUCGCUGGCGCCGGCUGGGCAACAUUCCGAGGGGACCGUCCCCUCGGUAAUGGCGAAUGGGACCCA [G10C C22A]	0.108
GUCCGGCAUGGUCCCAGCCUCCUCGCCGGCGCCGGCUGGGCAACAUUCCGAGGGGACCGUCCCCUCGGUAAUGGCGAAUGGGACCCA [G2U U27C]	0.0198
GGCCGGCAUGGUCCCAGCAUCCUCGAUGGCGCCGGCUGGGCAACAUUCCGAGGGGACCGUCCCCUCGGUAAUGGCGAAUGGGACCCA [C19A C26A]	0.462

Variant	self-cleavage
GGCCGGCAUGGUCCCAGCCUCCUGGCUGGCGCCGGCUGGGCAACAUUCGGAGGGGACCGUCCCCUCGGUAAUGGCGAAUGGGACCCA [C24G C49G]	0.0314
GGCCGGCAUGGUCCCAGCCUCCUCGCUGGCGCCGGAUGGUCAACAUUCCGAGGGGACCGUCCCCUCGGUAAUGGCGAAUGGGACCCA [C36A G40U]	0.161
GGCCGGCAUGGUCCCAGCCUCCUCGCUGGCGCCGGCUGGGCAACAAUCCGAGGGGACCUUCCCCUCGGUAAUGGCGAAUGGGACCCA [U46A G59U]	0.674
GGCCGGCAUGGUCCCAGCCUCCUCGUUGGCGCCGGCUGGGCAACAUUCCGAGGGGACCGUCCCCUCGGUAAUGGCGAAUGGGACCCG [C26U A87G]	1.04
GACCGGCAUGGUCCCAGCCUCCUCGCUGGCGCCGGCUGCGCAACAUUCCGAGGGGACCGUCCCCUCGGUAAUGGCGAAUGGGACCCA [G2A G39C]	0.0712
GGCCGGCGUGGUCCCAGCCUCCUCGCUGGCGCCGGCUGUGCAACAUUCCGAGGGGACCGUCCCCUCGGUAAUGGCGAAUGGGACCCA [A8G G39U]	0.54
GGCCGGCAUGGUCCCAGCCUCCUCGCUGGCCCCGGCUGGGCAACAUUCCGAGGGGACCGUCCCCUCGGUAAUGGCGAUUGGGACCCA [G31C A78U]	0.148
GGCCAGCAUGGUCCCAGCCUCCUCGCUGCCGCCGGCUGGGCAACAUUCCGAGGGGACCGUCCCCUCGGUAAUGGCGAAUGGGACCCA [G5A G29C]	0.0755
GGCCGGCAGGGUCCCAGCCUCCUCGCUGGCGCCGGCUGGGCAACAUUCCGAGGGGACCGUCCCCUCGGUAAUGGCGAAUGGGAGCCA [U9G C84G]	0.222
GGCCGGCAUGGUCCCAGCCUCUUCGCUGGCGCCGGCUGGGCAACAUUCCGACGGGACCGUCCCCUCGGUAAUGGCGAAUGGGACCCA [C22U G52C]	0.635
GGCCGGCAUGGACCCAGCCUCCUCGCUGGCGCCGGCUGGGCAACAUUCCGAGGGGACCGUCCCCUCGGUAAUGGCGAAUGGGACUCA [U12A C85U]	0.481
GGCCGGCAUGGUCCCAUCCUCCUCGCUGGCGCCGGCUGGGCAACAUUCCGAGGGGACCGUCCCCUCGGUAAUGGCGAAUGGGACCCC [G17U A87C]	0.389
GGCCGGCAUGGUCCCAGCCUCCUCGCUGGCGCCGGCUGGGCUAAAUUCCGAGGGGACCGUCCCCUCGGUAAUGGCGAAUGGGACCCA [A42U C44A]	0.688
GGCCGGCAUGGUCCCAGCCUCCUCGCUGGCGCCGGCUGGGCAACAUUCCGAGGGGACCGUGCCGUCGGUAAUGGCGAAUGGGACCCA [C61G C64G]	0.527
GGCCGGCAUGUUCCCAGCCUCCUCGCUGGCGCCGGCUGGGCAACAUUCGGAGGGGACCGUCCCCUCGGUAAUGGCGAAUGGGACCCA [G11U C49G]	0.166
GGCCCGCAUGGUCCCAGCCUCCUCGCUGGCGACGGCUGGGCAACAUUCCGAGGGGACCGUCCCCUCGGUAAUGGCGAAUGGGACCCA [G5C C32A]	0.0615
GGCCGGCAUGGUCCCCGCCUCCUCGCUGGCGCCGGAUGGGCAACAUUCCGAGGGGACCGUCCCCUCGGUAAUGGCGAAUGGGACCCA [A16C C36A]	0.135
GGCCGGCAUGGUCCCAGCCUCCUCGCUGGCGCCGGCUGGGCAACAUUCCGAUGGGACCGUCCCCACGGUAAUGGCGAAUGGGACCCA [G52U U65A]	0.82
GGCCGGCAUGGUCCCAGCCUGCUCGCUGGCGCCGGCUGGGCAACAUUCCGAGGGGACCGUCCCCUCGGUAAUGGCGAAUGUGACCCA [C21G G81U]	0.18
GGCCGGCAUGGUCCCAGCCUCCUCGCUGGCGCCGGCUGGGCAACAUUCCGAGGGGACCGUCCCCUCGGUUAUGGCGAAUGGGUCCCA [A70U A83U]	0.237

From the RNAGym collection of RNA variant scans (doi:10.7554/elife.80360)
